The source of these data is the supplement of paper PMC10567573.

B1: ACSBG2 (parent)
chain: FAQADALKGTLVSTLKEVKPTVFI
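Also: lentivirally expressed fusions sorted by FACS into six bins by GFP to DsRed ratio, PSI derived from sequencing read proportions per bin multiplied by bin number.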

In the data set the parent is B1. Put plainly: protein stability index of a GFP-peptide fusion (GPS, HEK-293T) (PSI 1-6); higher = more stable. The settings on record: c terminus: a fixed tail appended.
For FAQADALSGTLVSTLKEVKPTVFI [K8S], the protein stability index was found to be 1.71.
The same measure for FAQADALDGTLVSTLKEVKPTVFI [K8D]: 1.9; for FAQADALAGTLVSTLKEVKPTVFI [K8A]: 2.12; for FAQADALYGTLVSTLKEVKPTVFI [K8Y]: 3.
Take FAQADALRGTLVSTLKEVKPTVFI [K8R]: the protein stability index is 1.8.
For FAQADALEGTLVSTLKEVKPTVFI [K8E], the protein stability index came out at 1.41.
With FAQADALKGTLVSTLKEVKPTKFI [V22K], the protein stability index was determined as 2.45.
On to FAQADALKGTLVSTLKEVKPTIFI [V22I], for which the protein stability index came out at 2.43.
As for FAQADALKGTLVSTLKEVKPTAFI [V22A], the protein stability index turned out to be 2.73.
Under FAQADALKGTLVSTLKEVKPTTFI [V22T] stands 2.77; under FAQADFLKGTLVSTLKEVKPTVFI [A6F], 2.84.
On to FAQADMLKGTLVSTLKEVKPTVFI [A6M], for which the protein stability index turned out to be 1.9.
The same measure for FAQADALKGTLVSTLKEVCPTVFI [K19C]: 2.65.
Under FAQADALKGTLVSTLKEVWPTVFI [K19W] stands 1.99; under FAQADALKGTLVSTLKEVDPTVFI [K19D], 2.26.
The same measure for FAQADALKGTLVSTLKEVHPTVFI [K19H]: 1.04; for FAQADALKGTLVSTLKEVGPTVFI [K19G]: 3.46.
FAQADAMKGTLVSTLKEVKPTVFI [L7M]: the protein stability index was determined as 2.73.
On to FAQADAKKGTLVSTLKEVKPTVFI [L7K], for which the protein stability index was 2.37.
The same measure for MAQADALKGTLVSTLKEVKPTVFI [F1M]: 2.14; for YAQADALKGTLVSTLKEVKPTVFI [F1Y]: 1.96.
As to RAQADALKGTLVSTLKEVKPTVFI [F1R], the protein stability index came out at 1.83.
Consider IAQADALKGTLVSTLKEVKPTVFI [F1I], for which the protein stability index was found to be 2.25.
As to PAQADALKGTLVSTLKEVKPTVFI [F1P], the protein stability index was 2.31.
For the variant LAQADALKGTLVSTLKEVKPTVFI [F1L], the protein stability index was found to be 2.
Under FAQYDALKGTLVSTLKEVKPTVFI [A4Y] stands 1.52.
Take FAQMDALKGTLVSTLKEVKPTVFI [A4M]: the protein stability index was found to be 2.05.
FAQFDALKGTLVSTLKEVKPTVFI [A4F]: the protein stability index stood at 2.18.
With FAQVDALKGTLVSTLKEVKPTVFI [A4V], the protein stability index was 1.48.
As for FAQTDALKGTLVSTLKEVKPTVFI [A4T], the protein stability index was found to be 1.94.
On to FAQADALKGTLVSTLKHVKPTVFI [E17H], for which the protein stability index worked out at 3.49.
In the case of FAQADALKGTLVSTLKPVKPTVFI [E17P], the protein stability index stood at 1.83.
On to FAQADALKGTLVSTLKAVKPTVFI [E17A], for which the protein stability index came to 1.03.
As for FAQADALKGTLVSTLKIVKPTVFI [E17I], the protein stability index was 1.86.
For the variant FAQADALKGTLVSTLKNVKPTVFI [E17N], the protein stability index is 3.2.
Take FAQADALKGTLVSTLKMVKPTVFI [E17M]: the protein stability index is 2.29.
Under FAQADALKGTLVSTLKEVKPTVFT [I24T] stands 2.36; under FAQADALKGTLVSTLKEVKPTVFL [I24L], 1.05; under FAQADALKGTLVSTLKEVKPTVFN [I24N], 3.24.
Under FAQADALKGTLVSTLKEVKPTVFQ [I24Q] stands 2.23.
The same measure for FAQADALKGTLVSDLKEVKPTVFI [T14D]: 1.88; for FAQADALKGTLVSSLKEVKPTVFI [T14S]: 1.08.
As for FAQADALKGTLVSQLKEVKPTVFI [T14Q], the protein stability index stood at 1.95.
Under FAQADALKGTLVSALKEVKPTVFI [T14A] stands 1.8.
With FAQADALKGTLVSLLKEVKPTVFI [T14L], the protein stability index is 1.51.
The same measure for FAQADALKGTLVSTLKEVKLTVFI [P20L]: 3.23.
In the case of FAQADALKGTLVSTLKEVKNTVFI [P20N], the protein stability index is 2.42.
Take FAQADALKGSLVSTLKEVKPTVFI [T10S]: the protein stability index is 1.55.
With FAQADALKGDLVSTLKEVKPTVFI [T10D], the protein stability index is 2.07.
The same measure for FAQADALKGGLVSTLKEVKPTVFI [T10G]: 1.46; for FAQADALKGALVSTLKEVKPTVFI [T10A]: 2.04; for FAQADALKGYLVSTLKEVKPTVFI [T10Y]: 3.48.
The same measure for FAQADALKGILVSTLKEVKPTVFI [T10I]: 2.96; for FAQADALKGMLVSTLKEVKPTVFI [T10M]: 2.76; for FAQADALKGTLQSTLKEVKPTVFI [V12Q]: 1.52.
As to FAQADALKGTLNSTLKEVKPTVFI [V12N], the protein stability index was 1.6.
Consider FAQADALKGTLHSTLKEVKPTVFI [V12H], for which the protein stability index turned out to be 2.12.
Take FAQADALKGTLISTLKEVKPTVFI [V12I]: the protein stability index came to 2.26.
In the case of FAQADALKGTLVRTLKEVKPTVFI [S13R], the protein stability index worked out at 1.46.
For FAQADALKGTLVITLKEVKPTVFI [S13I], the protein stability index was determined as 2.4.
As to FAQADALKGTLVATLKEVKPTVFI [S13A], the protein stability index was found to be 2.1.
FAQADALKGTLVSTLKEVKPTVKI [F23K]: the protein stability index worked out at 2.69.
Regarding FAQADALKGTLVSTLKEVKPTVMI [F23M], the protein stability index was found to be 1.86.
On to FAQADALKGTLVSTLKEVKPTVGI [F23G], for which the protein stability index was determined as 2.36.
The same measure for FAQADALKGTLVSTLKEVKPTVEI [F23E]: 2.3.
As for FAQAFALKGTLVSTLKEVKPTVFI [D5F], the protein stability index worked out at 3.26.
Regarding FAQACALKGTLVSTLKEVKPTVFI [D5C], the protein stability index amounted to 1.35.
FAQAVALKGTLVSTLKEVKPTVFI [D5V]: the protein stability index was found to be 2.08.
For the variant FAQADALKGTQVSTLKEVKPTVFI [L11Q], the protein stability index is 2.88.
As for FAQADALKGTRVSTLKEVKPTVFI [L11R], the protein stability index stood at 2.13.
Consider FAQADALKGTLVSTGKEVKPTVFI [L15G], for which the protein stability index is 1.4.
With FAQADALKGTLVSTMKEVKPTVFI [L15M], the protein stability index came to 1.6.
Under FAQADALKGTLVSTTKEVKPTVFI [L15T] stands 1.97.
For the variant FAQADALKGTLVSTRKEVKPTVFI [L15R], the protein stability index amounted to 2.1.
As for FAQADALKGTLVSTHKEVKPTVFI [L15H], the protein stability index was found to be 1.93.
For the variant FAQADALKGTLVSTLKEHKPTVFI [V18H], the protein stability index came out at 1.28.
In the case of FAQADALKGTLVSTLKEPKPTVFI [V18P], the protein stability index is 1.74.
Consider FAQADALKGTLVSTLKEVKPQVFI [T21Q], for which the protein stability index was 1.32.
The same measure for FAQADALKGTLVSTLKEVKPPVFI [T21P]: 1.22; for FAQADALKGTLVSTLKEVKPEVFI [T21E]: 1.47.
For FAQADALKGTLVSTLKEVKPMVFI [T21M], the protein stability index turned out to be 1.82.
Take FASADALKGTLVSTLKEVKPTVFI [Q3S]: the protein stability index came to 1.28.
For the variant FAIADALKGTLVSTLKEVKPTVFI [Q3I], the protein stability index came out at 4.29.
Take FATADALKGTLVSTLKEVKPTVFI [Q3T]: the protein stability index came out at 1.8.
With FAQADALKGTLVSTLVEVKPTVFI [K16V], the protein stability index amounted to 2.8.
As to FAQADALKGTLVSTLDEVKPTVFI [K16D], the protein stability index worked out at 1.65.
FAQADALKGTLVSTLEEVKPTVFI [K16E]: the protein stability index worked out at 2.38.
Regarding FAQADALKGTLVSTLQEVKPTVFI [K16Q], the protein stability index was 1.56.
For FAQADALKGTLVSTLAEVKPTVFI [K16A], the protein stability index was found to be 1.97.
Regarding FAQADALKNTLVSTLKEVKPTVFI [G9N], the protein stability index turned out to be 1.27.
As to FAQADALKLTLVSTLKEVKPTVFI [G9L], the protein stability index is 2.72.
Consider FAQADALKCTLVSTLKEVKPTVFI [G9C], for which the protein stability index came to 2.73.
Under FAQADALKATLVSTLKEVKPTVFI [G9A] stands 2.24.
As to FAQADALKHTLVSTLKEVKPTVFI [G9H], the protein stability index is 1.55.
